In data set [1] the target is T1, Loqs dsRBD1 (Drosophila melanogaster, UniProt Q9VJY9-4 129-211).
T1 sequence: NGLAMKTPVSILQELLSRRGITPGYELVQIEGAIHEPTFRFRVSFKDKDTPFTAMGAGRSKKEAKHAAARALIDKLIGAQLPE
Put plainly: fluorescence anisotropy. On the technique in general: Polarisation of emitted light reports the rotation of a fluorescent probe.

Data set [2] has as its target T2, Loqs-PDΔNC (Drosophila melanogaster, UniProt Q9VJY9-4 129-322).
T2 sequence: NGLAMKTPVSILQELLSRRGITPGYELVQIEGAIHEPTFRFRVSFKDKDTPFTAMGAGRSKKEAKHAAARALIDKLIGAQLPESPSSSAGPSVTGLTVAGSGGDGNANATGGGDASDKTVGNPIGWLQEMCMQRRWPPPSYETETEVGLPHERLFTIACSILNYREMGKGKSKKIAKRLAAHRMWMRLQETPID
Put plainly: fluorescence anisotropy.

For data set [3], the target named is T3, Loqs-PD (Drosophila melanogaster, UniProt Q9VJY9-4 1-359).
T3 sequence: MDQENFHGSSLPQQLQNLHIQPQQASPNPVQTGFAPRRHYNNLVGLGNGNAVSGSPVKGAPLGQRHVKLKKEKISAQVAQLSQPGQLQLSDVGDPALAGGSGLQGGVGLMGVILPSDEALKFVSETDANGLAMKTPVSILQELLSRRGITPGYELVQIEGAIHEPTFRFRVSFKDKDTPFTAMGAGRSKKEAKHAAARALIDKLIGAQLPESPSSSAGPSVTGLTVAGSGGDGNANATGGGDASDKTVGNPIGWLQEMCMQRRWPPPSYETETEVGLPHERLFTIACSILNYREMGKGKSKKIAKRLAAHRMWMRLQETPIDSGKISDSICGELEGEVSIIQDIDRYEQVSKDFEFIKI
Put plainly: fluorescence anisotropy.

Data set [4] addresses T4, Loqs dsRBD2 (Drosophila melanogaster, UniProt Q9VJY9-4 245-322).
T4 sequence: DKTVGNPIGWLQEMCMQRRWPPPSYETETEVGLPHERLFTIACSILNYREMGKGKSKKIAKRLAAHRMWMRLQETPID
The data set is described as follows: fluorescence anisotropy.

Data set [5] concerns the target T2, Loqs-PDΔNC. Put plainly: NMR PRE.
In data set [6] the target is T5, Dcr-2;Loqs-PD (Drosophila melanogaster;Drosophila …, UniProt A1ZAW0;Q9VJY9-4 1-1722;1-359, |). The data set is described as follows: 4-thioU UV cross-linking.
Data set [7] deals with T2, Loqs-PDΔNC. The data set is described as follows: NMR.
Data set [8] concerns the target T6, Loqs-PDΔNC Δ41 (Drosophila melanogaster, UniProt Q9VJY9-4 129-322, del209-249).
T6 sequence: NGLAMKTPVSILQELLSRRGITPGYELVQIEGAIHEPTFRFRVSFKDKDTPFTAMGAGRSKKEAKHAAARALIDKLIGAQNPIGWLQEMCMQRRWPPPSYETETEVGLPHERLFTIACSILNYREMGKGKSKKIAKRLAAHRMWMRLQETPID
The data set is described as follows: NMR titration.

The target in data set [9] is T1, Loqs dsRBD1. Put plainly: NMR titration.
In data set [10] the target is T2, Loqs-PDΔNC. Put plainly: NMR titration.
In data set [11] the target is T4, Loqs dsRBD2. Put plainly: NMR titration.
Data set [12] addresses T2, Loqs-PDΔNC. The data set is described as follows: fluorescence anisotropy and EMSA.
Data set [13] has as its target T4, Loqs dsRBD2. The data set is described as follows: fluorescence anisotropy and EMSA.
Data set [14] concerns the target T2, Loqs-PDΔNC. The data set is described as follows: NMR PRE. This is another data set of the same source.
Data set [15] concerns the target T2, Loqs-PDΔNC. Put plainly: 4-thioU UV cross-linking.
The target in data set [16] is T3, Loqs-PD. The data set is described as follows: 4-thioU UV cross-linking.
The target in data set [17] is T5, Dcr-2;Loqs-PD. The data set is described as follows: 4-thioU UV cross-linking. The source holds these as a separate data set.
Data set [18] addresses T1, Loqs dsRBD1. Put plainly: 4-thioU UV cross-linking.
Data set [19] concerns the target T4, Loqs dsRBD2. The data set is described as follows: 4-thioU UV cross-linking.
For data set [20], the target named is Dcr-2 (Drosophila melanogaster, UniProt A1ZAW0 1-1722). Put plainly: 4-thioU UV cross-linking.

Read-outs that look alike come from different tables or passages of the source.

T5 sequence (A1ZAW0 whole entry, one chain of several): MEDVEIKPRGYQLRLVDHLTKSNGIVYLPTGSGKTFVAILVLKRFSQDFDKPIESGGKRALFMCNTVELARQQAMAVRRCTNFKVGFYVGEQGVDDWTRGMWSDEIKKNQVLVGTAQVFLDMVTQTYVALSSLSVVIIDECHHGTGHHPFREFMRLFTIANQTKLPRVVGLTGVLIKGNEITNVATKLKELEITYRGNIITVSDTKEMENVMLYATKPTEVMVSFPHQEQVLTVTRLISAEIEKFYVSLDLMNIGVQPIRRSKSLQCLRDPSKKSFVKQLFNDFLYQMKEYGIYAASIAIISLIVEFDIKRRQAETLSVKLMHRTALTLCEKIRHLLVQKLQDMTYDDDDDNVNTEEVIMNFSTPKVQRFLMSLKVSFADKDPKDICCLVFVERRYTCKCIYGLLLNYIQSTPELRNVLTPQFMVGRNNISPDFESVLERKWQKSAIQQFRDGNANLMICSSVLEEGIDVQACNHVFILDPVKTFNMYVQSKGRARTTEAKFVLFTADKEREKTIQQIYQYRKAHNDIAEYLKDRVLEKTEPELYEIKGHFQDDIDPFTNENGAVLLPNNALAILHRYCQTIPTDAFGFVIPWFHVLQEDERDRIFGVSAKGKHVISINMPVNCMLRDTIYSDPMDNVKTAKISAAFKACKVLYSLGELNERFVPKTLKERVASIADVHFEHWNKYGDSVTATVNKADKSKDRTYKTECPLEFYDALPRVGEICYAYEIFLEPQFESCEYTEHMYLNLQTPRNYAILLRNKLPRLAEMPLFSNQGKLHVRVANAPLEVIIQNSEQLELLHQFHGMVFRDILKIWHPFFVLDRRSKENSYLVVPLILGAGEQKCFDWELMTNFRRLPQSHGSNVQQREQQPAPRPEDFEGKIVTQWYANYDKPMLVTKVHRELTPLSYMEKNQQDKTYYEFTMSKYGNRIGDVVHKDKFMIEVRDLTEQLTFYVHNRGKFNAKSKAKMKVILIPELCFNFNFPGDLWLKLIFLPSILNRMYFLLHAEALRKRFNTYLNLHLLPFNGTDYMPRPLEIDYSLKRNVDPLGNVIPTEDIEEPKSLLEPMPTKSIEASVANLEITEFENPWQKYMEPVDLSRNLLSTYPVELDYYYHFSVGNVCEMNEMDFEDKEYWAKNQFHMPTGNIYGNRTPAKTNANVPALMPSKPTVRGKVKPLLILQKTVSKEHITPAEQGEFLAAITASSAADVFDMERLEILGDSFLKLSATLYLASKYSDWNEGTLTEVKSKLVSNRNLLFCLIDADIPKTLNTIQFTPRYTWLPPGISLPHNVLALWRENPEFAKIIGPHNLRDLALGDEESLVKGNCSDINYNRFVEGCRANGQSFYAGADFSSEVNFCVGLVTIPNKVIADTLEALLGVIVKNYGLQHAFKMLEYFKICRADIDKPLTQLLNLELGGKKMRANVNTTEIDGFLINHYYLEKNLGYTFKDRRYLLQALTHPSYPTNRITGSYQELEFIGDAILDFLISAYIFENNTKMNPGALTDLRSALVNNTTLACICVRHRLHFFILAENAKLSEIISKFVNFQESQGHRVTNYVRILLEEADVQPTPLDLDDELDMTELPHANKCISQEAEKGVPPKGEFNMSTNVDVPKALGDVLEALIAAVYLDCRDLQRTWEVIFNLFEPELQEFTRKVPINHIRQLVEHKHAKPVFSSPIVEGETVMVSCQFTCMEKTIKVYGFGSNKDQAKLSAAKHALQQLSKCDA
Sequence of Dcr-2 (A1ZAW0 whole entry): as the sequence (A1ZAW0 whole entry, one chain of several) above

B1: ban-siRNA, FITC (dsRNA)
RNA 1: UGAGAUCAUUUUGAAAGCUGAUU
RNA 2: UCAGCUUUCAAAAUGAUCUCACU
modifications: 5'-phosphate
The Kd is the concentration at which binding is half-saturated. A lower Kd goes with higher affinity. Regarding B1, the Kd in data set [1] is 228 ± 27 nM; in data set [2], 82 ± 21 nM; in data set [3], 50 ± 6 nM; in data set [4] it was 278 ± 24 nM.

B2: 35 nt dsRNA, FITC (dsRNA)
RNA 1: GAUUCAUACAAGUGAGAUCAUUUUGAAAGCUGAUU
RNA 2: UCAGCUUUCAAAAUGAUCUCACUUGUAUGAAUCAA
modifications: 5'-phosphate
Regarding B2, the Kd in data set [1] was found to be 191 ± 29 nM; in [2] it was 86 ± 18 nM; in data set [3], 62 ± 5 nM; in data set [4], 229 ± 48 nM.

B3: highly asymmetric siRNA, TEMPO (dsRNA)
RNA 1: GUAACUUUCAAAAUGAGCGCCUU
RNA 2: GGCGCUCAUUUUGAAAGUUACUU
modifications: TEMPO at either 5' end
With B3, in [5], the binding result is given as “binds”.

B4: nicked siRNA, passenger nicked, 4-thioU (dsRNA)
RNA 1: UGAGAUCAUUUUGAAAGCUGAUU
RNA 2: UCAGCUUUCAA
RNA 3: AAUGAUCUCACU
modifications: nick 11/12; 4-thiouridine in intact strand
Regarding B4, the binding result in data set [6] was “binds”.

B5: ban-siRNA GG variant, isotope-labeled (dsRNA)
RNA 1: GGAGCUUUCAAAAUGAUCUCCUU
RNA 2: GGAGAUCAUUUUGAAAGCUCCUU
Consider B5, for which, in data set [7], the binding result is reported as “binds”.

B6: ban-siRNA, unlabeled (dsRNA)
RNA 1: UCAGCUUUCAAAAUGAUCUCACU
RNA 2: UGAGAUCAUUUUGAAAGCUGAUU
As to B6, the binding result in data set [8], in [9], in [10] and in [11] was “binds” in each case.

B7: nicked siRNA, FITC (dsRNA)
RNA 1: UGAGAUCAUUUUGAAAGCUGAUU
RNA 2: UCAGCUUUCAA
RNA 3: AAUGAUCUCACU
modifications: nick between 11 and 12 of S1 strand; 5'-phosphate
Regarding B7, the binding result in data set [12] and in [13] was “binds” throughout.

B8: bantam miRNA/miRNA*, FITC (dsRNA)
RNA 1: UGAGAUCAUUUUGAAAGCUGAUU
RNA 2: UCGGUUUUCGAUUUGGUUUGACU
modifications: 5'-phosphate
For B8, the Kd in data set [1] was determined as 233 ± 17 nM; in data set [2], 97 ± 21 nM; in [3] it was 118 ± 17 nM; in data set [4], 241 ± 75 nM.

B9: 14 nt RNA, FITC (dsRNA)
RNA 1: UGAGAUCAUUUUGA
RNA 2: UCAAAAUGAUCUCAUU
modifications: 5'-phosphate
B9: the Kd came to 365 ± 62 nM in [1], 128 ± 41 nM in [2], 118 ± 15 nM in data set [3] and 334 ± 8 nM in data set [4].

B10: ban-siRNA GG variant, TEMPO (dsRNA)
RNA 1: GGAGCUUUCAAAAUGAUCUCCUU
RNA 2: GGAGAUCAUUUUGAAAGCUCCUU
modifications: TEMPO at either 5' end (G1 or G24)
On to B10, for which the binding result in data set [14] was “binds”.

B11: ban-siRNA, 4-thioU series (dsRNA)
RNA 1: UCAGCUUUCAAAAUGAUCUCACU
RNA 2: UGAGAUCAUUUUGAAAGCUGAUU
modifications: one 4-thiouridine per duplex, position varied; 5'-phosphate
B11: the binding result in data set [15], in data set [16], in [17], in data set [18], in [19] and in data set [20] was “binds” each time.

(Values after publication PMC5716069.)
